Measurements taken from patent US20250136687A1 (SHANDONG SIMCERE BIOPHARMACEUTICAL, published 2025).
Read-outs that look alike come from different tables or passages of the source.

T1: monkey CD3ε protein (monkey, UniProt Q95LI5 22-117, limits assumed)
T1 sequence (looked up): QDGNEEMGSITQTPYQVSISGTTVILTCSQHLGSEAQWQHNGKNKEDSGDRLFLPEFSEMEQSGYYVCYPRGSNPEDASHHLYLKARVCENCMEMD


Assays:
monkey CD3ε protein = biological target: T1, monkey CD3ε protein; experiment: ELISA, coated antigen
Method: (§1) To detect the binding activity of the humanized antibodies to CD3 protein, CD3 protein was diluted with PBS to the final concentration of […], then added to a 96-well ELISA plate at 50 μL/well, and the plate was sealed with a plastic film, and incubated overnight at 4° C. On the next day, the plate was washed 2 times with PBS, and a blocking solution [PBS+2% (v/v) BSA] was added for blocking at room temperature for 2 h. The blocking solution was poured off, and the antibody (initial concentration of 100 nM, and gradient dilution at 1:10) or a negative control antibody was added at 50 µl/well. After incubation at 37° C. for 2 h, the plate was washed 3 times with PBS. […] TMB substrate was added at 50 μl/well, and incubated at room temperature for 10 min, and then a stop solution (1.0 N HCl) was added at 50 μl/well. The OD450 nm values were read by an ELISA microplate reader (Multimode Plate Reader, EnSight, purchased from Perkin Elmer).
(§2) To detect the binding activity of the humanized antibodies to monkey CD3 protein, CD3 protein was diluted with PBS to the final concentration of […], and then added to a 96-well ELISA plate at 50 μl/well.

monkey CD3ε/δ-His = biological target: T2, monkey CD3ε/δ-His (monkey, UniProt Q95LI5 22-117; Q95LI8 22-105); experiment: ELISA, coated antigen
T2 construct: Bought recombinant heterodimer with His tag
Method: as §1, §2

[1] = biological target: T3, human CD3 on the cell surface (Jurkat cells, expanded human T cells, Jurkat-Lucia NFAT cells, human PBMC) (human, UniProt P07766 23-207; P04234 22-171; P09693 23-182); experiment: FACS, expanded human T cells
T3 construct: whole, on cells; Endogenous CD3 within the TCR-CD3 complex on cells (also zeta chains and TCR); the cell type is named under assay
Method: (§3) The binding of the chimeric antibodies to CD3 on the cell surface was analyzed by detecting the binding of the antibodies to Jurkat cells and human T cells. Suspension cells Jurkat cells were scale-up cultured in T-75 cell culture flasks to the logarithmic growth phase, the supernatant of the medium was discarded by centrifugation, and the cell pellet was washed 2 times with PBS for later use. The expanded human T cells were washed 2 times with PBS for later use. After counting the cells in the previous step, the cell pellet was resuspended with [PBS+2% (w/w) BSA] blocking solution to 4×10⁶ cells/ml, and added to a 96-well FACS reaction plate at 50 μl/well, and then the chimeric antibody to be tested was added at 50 μl/well, and incubated at 4° C. for 1 h. The cells were centrifuged and washed 3 times with a PBS buffer. […] The cells were centrifuged and washed 5 times with PBS, and FACS (FACS Canto™, purchased from BD Company) was used for detection and result analysis. Data analysis was performed by software (CellQuest) to obtain the mean fluorescence […] (MFI) of the cells. And then software (GraphPad Prism8) was used for analysis, data fitting, and EC50 value calculation. The same method was used to simultaneously detect the binding of the chimeric antibodies to endogenous CD3 negative cells MOLT4 cells.
The expanded human PBMC cells were collected, and FACS detection and data analysis were performed according to the method in Example 5.1.

human CD3ε/δ-His [2] = biological target: T4, human CD3ε/δ-His (human, UniProt P07766 23-126; P04234 22-105); experiment: SPR, antibody captured on Protein A chip
T4 construct: Bought recombinant heterodimer with His tag; also called human CD3ε/δ protein
Method: (§4) Running buffer was HBS-EP+(10 mM HEPES, 150 mM NaCl, 3 mM EDTA, 0.05% surfactant P20) (GE Healthcare; BR-1006-69). The flow-through cell was set to 25° C. The sample block was set to 16° C. Both were pretreated with the running buffer. In each cycle, an antibody to be detected was first captured with a Protein A chip, and then a single concentration of CD3ε antigen protein was injected. The binding and dissociation processes of the antibody and the antigen protein were recorded, and finally Glycine pH 1.5 (GE Healthcare; BR-1003-54) was used to complete chip regeneration. The binding was measured by injecting different concentrations of recombinant human CD3ε proteins in a solution for 240 s with a flow rate of 30 μL/min. The concentration started from 200 nM (see the detailed results for the actual concentration in the test) and was diluted at 1:1, making a total of 5 concentrations. The dissociation phase was monitored for up to 600 s and was triggered by switching from sample solution to running buffer. The surface was regenerated by washing with a 10 mM glycine solution (pH 1.5) for 30 s at a flow rate of 30 μL/min. Bulk refractive index difference was corrected by subtracting the response obtained from the goat anti-human Fc surface, and the blank injection was subtracted at the same time (=double reference). For calculation of apparent KD value and other kinetic parameters, Langmuir 1:1 model was used.

[3] = biological target: T5, recombinant human CD3ε-ECD His protein (human, UniProt P07766 23-126); experiment: SPR, antibody captured on Protein A chip
T5 construct: extracellular domain; also called human CD3ε-His; CD3ε antigen protein; not shown: His tag
Method: as §4

human CD3ε/δ-His [4] = biological target: T4, human CD3ε/δ-His; experiment: ELISA, coated antigen
Method: as §1

[5] = biological target: T5, recombinant human CD3ε-ECD His protein; experiment: ELISA, coated antigen
Method: as §1

[6] = biological target: T6, cynomolgus monkey CD3 on the surface of expanded monkey T cells (cynomolgus monkey, UniProt Q95LI5 22-198; Q95LI8 22-171; Q95LI7 23-181); experiment: FACS, expanded monkey T cells
T6 construct: whole, on cells; Endogenous CD3 within the TCR-CD3 complex on T cells expanded from cynomolgus monkey PBMC
Method: as §3
The expanded monkey T cells were collected, and FACS detection and data analysis were performed according to the method in Example 5.1.

[7] = biological target: T5, recombinant human CD3ε-ECD His protein; experiment: SPR (Biacore), antibody captured on Protein A chip
Method: Sample buffer and running buffer were HBS-EP+(10 mM HEPES, 150 mM NaCl, 3 mM EDTA, 0.05% surfactant P20) (GE Healthcare; BR-1006-69). The flow-through cell was set to 25° C. The sample block was set to 16° C. Both were pretreated with the running buffer. In each cycle, the antibody to be detected was first captured with a Protein A chip, and then a single concentration of CD3ε antigen protein (purchased from Sino Biological, Inc. (China), catalog number: 10977-H08H) was injected. The binding and dissociation processes of the antibody and the antigen protein were recorded, and finally a glycine solution (pH 1.5, GE Healthcare; BR-1003-54) was used to complete chip regeneration. The binding was measured by injecting different concentrations of recombinant human CD3ε-ECD His proteins in a solution for 240 s with a flow rate of 30 μL/min. The concentration started from 200 nM (see the detailed results for the actual concentration in the test) and was diluted at 1:1, making a total of 5 concentrations. The dissociation phase was monitored for up to 600 s and was triggered by switching from sample solution to running buffer. The surface was regenerated by washing with a 10 mM glycine solution (pH 1.5) for 30 s at a flow rate of 30 μL/min. Bulk refractive index difference was corrected by subtracting the response obtained from the goat anti-human Fc surface. Blank injection was also subtracted (=double reference). For calculation of apparent KD and other kinetic parameters, Langmuir 1:1 model was used.

[8] = biological target: T6, cynomolgus monkey CD3 on the surface of …; experiment: FACS, expanded monkey T cells; remark: listed apart in the source
Method: as §3
FACS detection and data analysis were performed on the cryopreserved monkey T cells of Example 2.4 according to the method in Example 5.1.

[9] = biological target: T3, human CD3 on the cell surface (Jurkat …); experiment: cell-based or functional assay
[10] = biological target: T3, human CD3 on the cell surface (Jurkat …); experiment: FACS, Jurkat cells
Method: as §3

[11] = biological target: T3, human CD3 on the cell surface (Jurkat …); experiment: FACS, expanded human T cells; remark: listed apart in the source
Method: as §3

T4 sequence (P07766 23-126, stated change not applied, form in doubt, chain 1 of 2): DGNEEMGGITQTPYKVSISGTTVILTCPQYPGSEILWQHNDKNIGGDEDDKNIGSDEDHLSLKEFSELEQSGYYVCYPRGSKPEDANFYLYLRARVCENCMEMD
T4 sequence (P04234 22-105, stated change not applied, form in doubt, chain 2 of 2): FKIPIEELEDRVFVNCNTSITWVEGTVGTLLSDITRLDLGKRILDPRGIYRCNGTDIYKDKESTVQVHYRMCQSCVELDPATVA
T5 sequence (P07766 23-126): as the sequence (P07766 23-126, stated change not applied, form in doubt, chain 1 of 2) above
T2 sequence (Q95LI8 22-105, stated change not applied, form in doubt, chain 2 of 2, one chain of several): as the sequence (P04234 22-105, stated change not applied, form in doubt, chain 2 of 2) above, with I5V, N15K, I20V, S32T, D33N, I34N, T64A, S74N, V83L counted along it
T6 sequence (Q95LI5 22-198, chain 1 of 3): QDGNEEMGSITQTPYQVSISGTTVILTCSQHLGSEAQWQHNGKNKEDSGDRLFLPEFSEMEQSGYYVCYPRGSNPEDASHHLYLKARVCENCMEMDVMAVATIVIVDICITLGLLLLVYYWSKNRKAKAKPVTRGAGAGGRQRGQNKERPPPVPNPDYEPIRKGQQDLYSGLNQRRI
T6 sequence (Q95LI8 22-171, chain 2 of 3): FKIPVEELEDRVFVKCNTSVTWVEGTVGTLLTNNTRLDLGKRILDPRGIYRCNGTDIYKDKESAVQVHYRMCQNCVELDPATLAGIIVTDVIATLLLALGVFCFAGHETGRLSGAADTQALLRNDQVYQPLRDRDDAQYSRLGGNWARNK
T6 sequence (Q95LI7 23-181, chain 3 of 3): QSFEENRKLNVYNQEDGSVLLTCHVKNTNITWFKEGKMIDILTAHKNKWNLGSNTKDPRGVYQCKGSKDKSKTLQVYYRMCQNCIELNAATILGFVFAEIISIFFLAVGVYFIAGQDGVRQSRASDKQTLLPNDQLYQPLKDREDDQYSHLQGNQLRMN
T3 sequence (P07766 23-207, chain 1 of 3): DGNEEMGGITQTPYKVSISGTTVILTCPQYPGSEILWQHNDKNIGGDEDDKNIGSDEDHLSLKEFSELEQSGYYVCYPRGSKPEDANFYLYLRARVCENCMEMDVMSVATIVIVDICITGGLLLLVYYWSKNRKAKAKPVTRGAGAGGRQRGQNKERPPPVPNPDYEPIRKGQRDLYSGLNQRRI
T3 sequence (P04234 22-171, chain 2 of 3): as the sequence (Q95LI8 22-171, chain 2 of 3) above, with V5I, K15N, V20I, T32S, N33D, N34I, A64T, N74S, L83V, R141H counted along it
T3 sequence (P09693 23-182, chain 3 of 3): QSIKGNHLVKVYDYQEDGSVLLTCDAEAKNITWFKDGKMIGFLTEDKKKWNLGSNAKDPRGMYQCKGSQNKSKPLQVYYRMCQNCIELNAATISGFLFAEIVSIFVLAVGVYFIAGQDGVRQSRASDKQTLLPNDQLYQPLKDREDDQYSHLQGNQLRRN

EC50 (monkey CD3ε protein) | max-OD450 (monkey CD3ε protein) | EC50 (monkey CD3ε/δ-His) | max-OD450 (monkey CD3ε/δ-His) | EC50 [1] | max_MFI [1] | Kd (human CD3ε/δ-His [2]) | koff (human CD3ε/δ-His [2]) | kon (human CD3ε/δ-His [2]) | Kd [7] | koff [7] | kon [7] | EC50 [8] | MFI_Max [8] | EC50 (nM), luciferase reporter, Jurkat-Lucia NFAT cells [9] | Maximum response value (RLU) [9] | EC50 [10] | MFI_Max [10] | EC50 [11] | MFI_Max [11] | Binder | further results
0.000467 nM | 2.84 OD450 | 0.00456 nM | 3.16 OD450 | 1.65 nM | 18000 MFI | 115 nM | 0.0184 s⁻¹ | 161000 M⁻¹ s⁻¹ |  |  |  |  |  |  |  |  |  |  |  | 5-40.21-H3-L1 humanized antibody (antibody, human IgG1, kappa, V domains shown) VH: EVQLVQSGAEVKKPGASVKVSCKASGYTFTSYWMHWVRQAPGQGLEWMGNTYPGSGSTNYDEKFKSRVTITVDSSASTAYMELSSLRSEDTAVYYCTRDRYGVYYFDYWGQGTTVTVSS VL: DIVMTQSPDSLAVSLGERATINCKSSQSLLNSRTRKNYLAWYQQKPGQSPKLLIYWASTRESGVPDRFSGSGSGTDFTLTISSLQAEDVAVYYCTQSYNLRTFGGGTKVEIKR | Kd [3]: 1.87 nM; koff [3]: 0.000485 s⁻¹; kon [3]: 260000 M⁻¹ s⁻¹; EC50 (human CD3ε/δ-His [4]): 0.28 nM; max-OD450 (human CD3ε/δ-His [4]): 3.15 OD450; EC50 [5]: 0.13 nM; max-OD450 [5]: 1.53 OD450; EC50 [6]: 0.73 nM; max_MFI [6]: 17800 MFI
 |  |  |  |  |  |  |  |  | 0.345 nM | 0.00027 s⁻¹ | 785000 M⁻¹ s⁻¹ | 0.09 nM | 26500 MFI | 0.7 nM | 55400 RLU | 0.06 nM | 32200 MFI | 0.1 nM | 15900 MFI | 5-7.13 human-murine chimeric antibody (antibody, human IgG1, kappa, V domains shown, Human IgG1 chimera) VH: QVQLQQPGTELVKPGASVKLSCKASGYTFTSYWVHWVKQRPGQGLEWIGNINPSDGVTNYNEKFKSRATLTVDKSSSTAYMQLSSLTSEDSAVYYCTRDAYGQYYFDDWGQGTTLTVSS VL: DIVMSQSPSSLVVSAGEKVTMSCKSSQSLLNSRTRKNYLAWYQQKPGQSPKLLIYWASVRDSGVPDRFTGSGSGTDFTLTISNVQAEDLAVYYCIQSYYLRTFGGGTILEIKR | 
 |  |  |  |  |  |  |  |  | 0.553 nM | 0.000379 s⁻¹ | 686000 M⁻¹ s⁻¹ | 1.09 nM | 24400 MFI | 4.79 nM | 46200 RLU | 0.44 nM | 26700 MFI | 0.99 nM | 11400 MFI | 5-40.21 human-murine chimeric antibody (antibody, human IgG1, kappa, V domains shown, Human IgG1 chimera) VH: QVQLQQPGSELVRPGASVKLSCKASGYTFTSYWMHWVKQRPGQGLEWIGNTYPGSGSTNYDEKFKSKATLTVDSSSSTAYMQLSSLTSEDSAVYYCTRDRYGVYYFDYWGQGTTLTVSS VL: DIVMSQSPSSLAVSAGEKVTMSCKSSQSLLNSRTRKNYLAWYQQKPGQSPKLLIYWASTRESGVPDRFSGSGSGTDFTLTISSVQAEDLAVYYCTQSYNLRTFGGGTKLEIKR | 
 |  |  |  |  |  |  |  |  | 0.445 nM | 0.000259 s⁻¹ | 581000 M⁻¹ s⁻¹ | 0.42 nM | 27100 MFI | 1.84 nM | 33600 RLU | 0.15 nM | 31700 MFI | 0.62 nM | 13300 MFI | 6-44.5 human-murine chimeric antibody (antibody, human IgG1, kappa, V domains shown, Human IgG1 chimera) VH: EVQLQQSGPELVKPGASVKMSCKASGHTFTSHIMHWVKQKPGQGLEWIGYINPNNDRTEYSEKFKGKATLTSDKSSSTAYMELSSLTSEDSAVYYCAGEAYYSNSLYAMDYWGQGTSVTVSS VL: DIVMSQSPSSLAVSAGEKVTMSCKSSQSLFNSRTRKNYLAWYQQKPGQSPELLIYWASTRESGVPVRFTGSGSGTDFTLTISSVQAEDLAVYYCKQSYYLRTFGGGTKLEVKR | 
0.000106 nM | 3.09 OD450 | 0.0124 nM | 3.23 OD450 | 11 nM | 15900 MFI | 113 nM | 0.0134 s⁻¹ | 119000 M⁻¹ s⁻¹ |  |  |  |  |  |  |  |  |  |  |  | 1-22.6-1-H2a-L2a humanized antibody (antibody, human IgG1, kappa, V domains shown, also called 1-22.6-H2a-L2a) VH: EVQLVQSGSELKKPGASVKVSCKTSGYTFTSYGMSWVRQAPGQGLEWMGWINTYSGVPTYAQDFKGRFVFSLDTSVSTAYLQISSLKAEDTAVYYCARLKNNPFVWGQGTTVTVSS VL: DIVMTQSPDSLAVSLGERATINCRSSQLILHSSGNTYLEWYQQKPGQSPKLLIYKVSNRFSGVPDRFSGSGSGTDFTLTISSLQAEDVAVYYCFQGSHFPWTFGGGTKVEIKR | Kd [3]: 3.64 nM; koff [3]: 0.000305 s⁻¹; kon [3]: 83600 M⁻¹ s⁻¹; EC50 (human CD3ε/δ-His [4]): 0.45 nM; max-OD450 (human CD3ε/δ-His [4]): 3.29 OD450; EC50 [5]: 0.1 nM; max-OD450 [5]: 1.49 OD450; EC50 [6]: 6.92 nM; max_MFI [6]: 12300 MFI
